We go through 6 molecules from patent US20260209316A1 (US Dept. of Health and Human Services, published 2026).

A word on the EC50: it is the concentration that produces a half-maximal response. Read a high EC50 as a need for much substance.

Where two headings read alike, the source gives them in different places.

Assay [1] addresses T1, full-length Sudan GP (GPFL) (Sudan virus (SUDV), UniProt Q7T9D9 33-650).
T1 construct: also called Sudan GPFL; GP(S)FL
T1 sequence: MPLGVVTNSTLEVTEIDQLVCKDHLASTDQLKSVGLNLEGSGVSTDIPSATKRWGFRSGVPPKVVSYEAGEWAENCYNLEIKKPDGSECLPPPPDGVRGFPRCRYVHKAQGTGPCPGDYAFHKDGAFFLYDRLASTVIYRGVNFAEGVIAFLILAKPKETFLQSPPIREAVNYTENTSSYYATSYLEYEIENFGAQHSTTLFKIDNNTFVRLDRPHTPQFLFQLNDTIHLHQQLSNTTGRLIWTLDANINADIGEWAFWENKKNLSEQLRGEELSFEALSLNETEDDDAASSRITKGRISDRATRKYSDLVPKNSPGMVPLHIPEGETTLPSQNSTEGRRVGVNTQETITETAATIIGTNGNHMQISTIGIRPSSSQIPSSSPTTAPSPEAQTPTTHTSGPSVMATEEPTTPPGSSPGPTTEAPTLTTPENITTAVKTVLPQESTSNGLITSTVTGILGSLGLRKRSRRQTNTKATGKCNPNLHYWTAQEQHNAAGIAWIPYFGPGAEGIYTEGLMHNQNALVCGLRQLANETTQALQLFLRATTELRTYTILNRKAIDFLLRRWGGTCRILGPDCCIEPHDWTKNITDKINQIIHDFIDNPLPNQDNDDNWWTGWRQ
Nature of the assay: ELISA on coated GP.

The target in assay [2] is T2, SUDV GP on pseudotyped lentiviral vector (Sudan virus (SUDV), UniProt Q7T9D9 33-676).
T2 sequence: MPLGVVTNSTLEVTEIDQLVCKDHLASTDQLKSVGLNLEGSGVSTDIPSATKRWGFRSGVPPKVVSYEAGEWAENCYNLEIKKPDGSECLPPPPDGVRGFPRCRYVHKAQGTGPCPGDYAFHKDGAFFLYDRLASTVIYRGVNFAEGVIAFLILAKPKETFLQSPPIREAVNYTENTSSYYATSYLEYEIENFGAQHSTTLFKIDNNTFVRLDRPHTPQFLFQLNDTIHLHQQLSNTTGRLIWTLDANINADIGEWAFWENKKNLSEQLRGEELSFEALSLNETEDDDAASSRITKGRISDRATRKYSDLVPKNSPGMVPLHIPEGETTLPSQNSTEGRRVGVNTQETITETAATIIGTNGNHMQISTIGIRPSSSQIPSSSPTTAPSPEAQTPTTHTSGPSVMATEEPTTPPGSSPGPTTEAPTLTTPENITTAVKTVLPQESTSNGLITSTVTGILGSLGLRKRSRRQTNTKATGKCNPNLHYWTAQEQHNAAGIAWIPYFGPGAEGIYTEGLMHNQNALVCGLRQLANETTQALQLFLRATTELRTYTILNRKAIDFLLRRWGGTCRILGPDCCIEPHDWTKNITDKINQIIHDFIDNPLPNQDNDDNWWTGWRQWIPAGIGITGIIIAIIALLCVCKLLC
Briefly: cell-based or functional assay.

Assay [3] addresses T2, SUDV GP on pseudotyped lentiviral vector. Briefly: cell-based or functional assay. The source holds these as a separate data set.
Assay [4] concerns the target T1, full-length Sudan GP (GPFL). Briefly: ELISA on coated GP. This is another data set of the same source. For orientation: In an ELISA, binding on a coated surface is turned into a signal by an enzyme label.
Assay [5] has the same target. Nature of the assay: ELISA on coated GP. The source holds these as a separate data set.
Assay [6] has as its target T2, SUDV GP on pseudotyped lentiviral vector. Nature of the assay: cell-based or functional assay. This is another data set of the same source.
In assay [7] the target is T3, full-length Zaire GP (GPFL) (Ebola (Zaire) virus (EBOV), UniProt Q05320 33-632).
T3 construct: also called Zaire GPFL; GP(Z)FL
T3 sequence: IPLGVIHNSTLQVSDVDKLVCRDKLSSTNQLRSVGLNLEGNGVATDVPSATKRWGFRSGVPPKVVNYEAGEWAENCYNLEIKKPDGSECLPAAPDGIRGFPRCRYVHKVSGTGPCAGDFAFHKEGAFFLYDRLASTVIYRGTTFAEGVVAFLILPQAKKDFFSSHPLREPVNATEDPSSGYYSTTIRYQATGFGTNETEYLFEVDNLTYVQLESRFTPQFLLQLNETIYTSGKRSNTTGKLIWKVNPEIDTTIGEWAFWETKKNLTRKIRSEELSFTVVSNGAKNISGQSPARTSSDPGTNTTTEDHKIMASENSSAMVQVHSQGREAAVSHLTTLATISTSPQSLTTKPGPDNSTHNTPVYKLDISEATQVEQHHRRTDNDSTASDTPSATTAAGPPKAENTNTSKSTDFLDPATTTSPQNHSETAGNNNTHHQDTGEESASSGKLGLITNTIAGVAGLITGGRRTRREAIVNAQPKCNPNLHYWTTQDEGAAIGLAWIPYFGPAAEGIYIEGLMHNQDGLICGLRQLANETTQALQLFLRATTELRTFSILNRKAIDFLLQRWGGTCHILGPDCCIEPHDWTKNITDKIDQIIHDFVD
Briefly: ELISA on coated GP.

The target of assay [8] is T4, EBOV GP on pseudotyped lentiviral vector (Ebola (Zaire) virus (EBOV), UniProt Q05320 33-676).
T4 sequence: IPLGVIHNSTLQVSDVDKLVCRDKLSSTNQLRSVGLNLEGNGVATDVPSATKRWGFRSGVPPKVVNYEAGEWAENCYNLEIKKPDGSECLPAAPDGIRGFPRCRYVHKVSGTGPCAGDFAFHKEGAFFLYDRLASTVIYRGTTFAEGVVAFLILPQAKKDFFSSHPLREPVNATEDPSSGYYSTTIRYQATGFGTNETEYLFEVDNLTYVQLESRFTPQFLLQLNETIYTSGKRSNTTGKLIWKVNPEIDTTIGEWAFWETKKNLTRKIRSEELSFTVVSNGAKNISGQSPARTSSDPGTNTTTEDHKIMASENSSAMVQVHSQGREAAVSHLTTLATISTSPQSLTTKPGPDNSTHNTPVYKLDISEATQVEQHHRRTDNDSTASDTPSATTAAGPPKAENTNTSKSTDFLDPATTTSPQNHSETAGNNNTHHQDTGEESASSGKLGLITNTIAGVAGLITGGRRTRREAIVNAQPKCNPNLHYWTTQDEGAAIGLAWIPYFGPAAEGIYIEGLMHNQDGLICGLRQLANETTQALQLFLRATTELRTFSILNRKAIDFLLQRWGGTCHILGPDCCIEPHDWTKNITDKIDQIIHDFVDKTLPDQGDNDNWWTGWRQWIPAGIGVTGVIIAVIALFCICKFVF
Briefly: cell-based or functional assay.

In assay [9] the target is T4, EBOV GP on pseudotyped lentiviral vector. Nature of the assay: cell-based or functional assay. This is another data set of the same source.
The target in assay [10] is T3, full-length Zaire GP (GPFL). Briefly: ELISA on coated GP. This is another data set of the same source.

B1: antibody 16F6 (antibody, V domains shown)
VH: EVQLVESGGGLVTPGGSLKLSCAASGFAFNYYDMFWVRQNTEKRLEWVAYINSGGGNTYYPDTVKGRFTISRDNAKKTLFLQMSSLRSEDTAMYYCARQLYGNSFFDYWGQGTSLTVSA
VL: DIVMTQSHKFMSTSVGDRVTITCKASQDVTTAVAWYQQKPGHSPKLLIYWASTRHTGVPDRFTGSGSGTDFTLTLNSVQAEDLALYYCQQHYSTPLTFGAGTKLELK
Take B1: the concentration giving a half-maximal response (EC50) is 0.068 µg/mL in [1] and 0.16 µg/mL in assay [4]. Besides, the “IC50, microneutralization of GP-pseudotyped lentiviral vector on HEK293 cells” value (“IC50, microneutralization” below) in assay [2] is 0.04 µg/mL; in assay [3] it was 0.068 µg/mL.

B2: antibody 291S (antibody, V domains shown)
VH: QVQLQESGPGLVKPSQTLSLTCTVSGGSFSSGFYWSWIRQRPGKGLEWVGYTYYSGSTYYNPSLQSRVTISVDTSKNQFSLNLSSVTAADTAVYHCARADYGGLFDYWGQGILVTVSS
VL: QSVLTQPSSLSASPGASASLTCTLRSGINVGTYRIFWYQQKPGSPPQFLLRYNSDSDKQQGSGVPSRFSGSKDASANAGILLISGLQSEDEADYYCMIWHTSAWVFGGGTKLTVL
Regarding B2, the EC50 in assay [5] came out at 0.0565 µg/mL. Further, in assay [6], the “IC50, microneutralization” value is 2.89 µg/mL.

B3: antibody 380L (antibody, V domains shown)
VH: EVQLVESGGGLVQPGGSLTLSCAASGFTFGDYVMHWVRQVPGRGLEWLSAVSWSGYTTYSADSVKGRFTISRDNAKNSLYLQMSRLGTADTGLYYCVTLIGAIGIRDSFDAWGRGVLVTVSS
VL: QSVLTQPPSMSGAPGQRVTVSCTGSSSNIGAGNYVQWYQQLPGTAPKVLIYQTDKRPSGISDRFSGSKSGTSASLTISGLQSEDEADYYCQVYDSSLNGWVFGGGTRLTVL
notes: also called 380L mAb; mAb 380L
As to B3, the EC50 in [1] turned out to be 0.0195 µg/mL; in [7] it was 0.0398 µg/mL. Further, the “IC50, microneutralization” value in [8] worked out at 0.756 µg/mL; in [3] it was 0.395 µg/mL.

B4: antibody 545S (antibody, V domains shown)
VH: QVQLQESGPGLVKPSQTLSLTCTVSGGSISRAGSYWSWIRQHPGKGLEWIGYISYSGSTYYNPSLESRVTMSLDTSKSQFSLKLSSVTAADTAVYYCAREDRSGFYGLDVWGQGTTVTVSS
VL: QSVLTQPSSLSASPGATASLTCTLRSGINVDTYRIYWYQQKPGSPPQYLLRYKSDSDKHQGSGVPSRFSGSKDASANAGILLISGLQSADEADYYCMIWHSGAWVFGGGTKLTVQG
notes: also called 545S mAb
The molecule B4 displayed an EC50 in [5] of 0.0338 µg/mL. In assay [6], the “IC50, microneutralization” value worked out at 0.624 µg/mL.

B5: antibody 316L (antibody, V domains shown)
VH: EERLVESGGGLVQPGGSLRLSCAASGFTFGDYAMHWVRQVPGKSLEWLSGISWSGYTTYSADSVKGRFTISRDNAKNSLYLQMNRLRPEDTGLYYCVTLIGAIGIKDSLDVWGRGVLVTVSS
VL: QSVLTQPPSVSGAPGQRVTVSCSGSSSNIGAGNYVQWYQQLPGTAPKVLIYQTEKRPSGTSDRFSGSKSDTSASLTINGLQSEDEADYYCQVYDSNLNGWVFGGGTRLTVLG
notes: also called 316L mAb; mAb 316L
On to B5, for which the EC50 was 0.0175 µg/mL in assay [1] and 0.0441 µg/mL in assay [7]. Besides, the figures for the “IC50, microneutralization” value in assay [8] and in assay [3] were 1.77 µg/mL and 0.284 µg/mL, respectively.

B6: antibody mAb114 (antibody, V domains shown)
VH: EVQLVESGGGLIQPGGSLRLSCAASGFALRMYDMHWVRQTIDKRLEWVSAVGPSGDTYYADSVKGRFAVSRENAKNSLSLQMNSLTAGDTAIYYCVRSDRGVAGLFDSWGQGILVTVSS
VL: DIQMTQSPSSLSASVGDRITITCRASQAFDNYVAWYQQRPGKVPKLLISAASALHAGVPSRFSGSGSGTHFTLTISSLQPEDVATYYCQNYNSAPLTFGGGTKVEIK
With B6, the EC50 in assay [7] was found to be 0.0239 µg/mL; in [10], 0.02 µg/mL. In addition, the entries for the “IC50, microneutralization” value in [9] and in [8] were 0.18 µg/mL and 0.152 µg/mL, respectively.
